The text below walks through data of publication PMC12019173, “Liganded magnetic nanoparticles for magnetic resonance imaging of α-synuclein” (NPJ Parkinson's Disease, 2025).

No end group written: not given here.

Conditions in all cases: both partners purified
The target in test [1] is T1, recombinant α-synuclein fibrils (human, UniProt P37840 1-140). Nature of the test: SPR; α-syn fibrils on the SPR chip, LMNPs flowed over; LMNPs would not dissociate, no Kd calculated.
Test [2] has as its target T1, recombinant α-synuclein fibrils. Briefly: SPR; short, sonicated α-syn fibrils immobilised on a CM5 chip, BiaCore T200; peptides 300 nM to 10 μM in PBS; steady state analysis, 1:1 binding model; apparent Kd. On the technique in general: Surface plasmon resonance follows binding to a sensor surface in real time, without labels.
Test [3] has as its target DLB brain-derived α-synuclein fibrils (human (endogenous in brain tissue), UniProt P37840 1-140). Nature of the test: negative-stain transmission electron microscopy; brain-derived (sarkosyl-insoluble) fibrils mixed with R8-LMNPs (3 μg/mL), 4 °C overnight, 2% uranyl acetate.
For test [4], the target named is MSA brain-derived α-synuclein fibrils (human (endogenous in brain tissue), UniProt P37840 1-140). The test is described as above.

B1: 24mer-liganded magnetic nanoparticles (other)
peptide: GAVVWGVTAVKKGRKKRRQRRRPQ
modifications: also: covalently coupled to amine-functionalized dextran-coated iron oxide nanoparticle
notes: two lysine linker; cell penetrating peptide; Multivalent; also called 24mer-LMNPs
As for B1, the binding result in test [1] was “binds”.

B2: 24mer (designed binder)
peptide: GAVVWGVTAVKKGRKKRRQRRRPQ
notes: two lysine linker; cell penetrating peptide; 24 residues; also called 24-residue peptide
On to B2, for which the Kd in test [2] turned out to be 3700 nM.

B3: R8-liganded magnetic nanoparticles (other)
peptide: RVGGARVWGVRKKGRKKRRQRRRPQ
modifications: also: covalently coupled to amine-functionalized dextran-coated iron oxide nanoparticle
notes: two-lysine linker; cell penetrating peptide; Multiple R8 ligands on each nanoparticle (multivalent, avidity); also called R8-LMNPs; R8-LMNP
On to B3, for which the binding result in test [1], in test [3] and in test [4] was “binds” each time.

B4: R8 (designed binder)
peptide: RVGGARVWGVRKKGRKKRRQRRRPQ
notes: two-lysine linker; cell penetrating peptide (the methods call it the Tat peptide; detected with an anti-HIV-1 tat antibody); 25 residues; also called R8 peptide; source: synthetic peptide (Genscript or LifeTein)
Regarding B4, the Kd in test [2] came out at 470 nM.
